Measurements: US20060094663A1 (VALORISATION RECHERCHE SOCIETE EN COMMANDITE, published 2006)
Where no end group is shown, it is not given here. [ ]: non-standard residue; d: D form. dOrn = NCCC[C@@H](N)C(=O)O

How the values were obtained:
Experiment in all cases: cell-based or functional assay
[1] = biological target: T1, IL-1R/IL-1RacP receptor on human cells (human, UniProt P14778 18-569; Q9NPH3 21-570)
T1 sequence (looked up) 1: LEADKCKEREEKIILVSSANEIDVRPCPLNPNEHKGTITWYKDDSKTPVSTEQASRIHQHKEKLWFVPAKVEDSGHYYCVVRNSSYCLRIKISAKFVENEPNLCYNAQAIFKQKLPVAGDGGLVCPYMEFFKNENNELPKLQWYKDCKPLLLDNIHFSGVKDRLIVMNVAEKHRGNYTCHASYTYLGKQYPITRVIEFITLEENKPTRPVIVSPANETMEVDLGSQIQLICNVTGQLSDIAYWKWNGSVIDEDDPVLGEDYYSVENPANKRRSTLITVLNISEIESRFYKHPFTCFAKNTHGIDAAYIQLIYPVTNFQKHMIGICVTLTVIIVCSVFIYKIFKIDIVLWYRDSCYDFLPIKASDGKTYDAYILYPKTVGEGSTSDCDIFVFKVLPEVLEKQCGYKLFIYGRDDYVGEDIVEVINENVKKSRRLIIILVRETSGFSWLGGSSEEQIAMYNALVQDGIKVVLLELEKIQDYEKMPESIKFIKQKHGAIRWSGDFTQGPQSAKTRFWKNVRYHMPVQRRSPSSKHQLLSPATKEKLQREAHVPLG
T1 sequence (looked up) 2: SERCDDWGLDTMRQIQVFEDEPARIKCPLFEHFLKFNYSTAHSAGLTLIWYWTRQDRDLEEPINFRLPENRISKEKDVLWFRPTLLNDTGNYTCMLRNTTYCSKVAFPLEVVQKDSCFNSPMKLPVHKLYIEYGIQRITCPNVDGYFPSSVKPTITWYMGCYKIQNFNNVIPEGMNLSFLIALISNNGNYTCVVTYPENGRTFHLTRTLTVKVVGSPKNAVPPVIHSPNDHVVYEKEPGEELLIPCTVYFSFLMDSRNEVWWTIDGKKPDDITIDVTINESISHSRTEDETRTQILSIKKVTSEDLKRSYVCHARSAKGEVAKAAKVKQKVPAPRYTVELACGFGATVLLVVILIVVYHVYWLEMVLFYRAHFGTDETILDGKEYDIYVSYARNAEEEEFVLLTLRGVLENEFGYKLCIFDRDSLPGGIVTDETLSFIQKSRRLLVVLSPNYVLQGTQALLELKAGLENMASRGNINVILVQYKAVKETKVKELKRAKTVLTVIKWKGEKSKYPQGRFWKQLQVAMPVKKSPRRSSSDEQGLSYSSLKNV

[2] = biological target: T2, IL-1R/IL-1RacP receptor on porcine cells and vessels (porcine (piglet), UniProt A0A5G2QSI4 18-572)
[3] = biological target: IL-1R/IL-1RacP receptor (cells or tissue whose species is not stated)
[4] = biological target: T2, IL-1R/IL-1RacP receptor on porcine …; remark: listed apart in the source
[5] = biological target: T1, IL-1R/IL-1RacP receptor on human cells; remark: listed apart in the source
[6] = biological target: T1, IL-1R/IL-1RacP receptor on human cells; remark: listed apart in the source

T2 sequence (A0A5G2QSI4 entry or part of it): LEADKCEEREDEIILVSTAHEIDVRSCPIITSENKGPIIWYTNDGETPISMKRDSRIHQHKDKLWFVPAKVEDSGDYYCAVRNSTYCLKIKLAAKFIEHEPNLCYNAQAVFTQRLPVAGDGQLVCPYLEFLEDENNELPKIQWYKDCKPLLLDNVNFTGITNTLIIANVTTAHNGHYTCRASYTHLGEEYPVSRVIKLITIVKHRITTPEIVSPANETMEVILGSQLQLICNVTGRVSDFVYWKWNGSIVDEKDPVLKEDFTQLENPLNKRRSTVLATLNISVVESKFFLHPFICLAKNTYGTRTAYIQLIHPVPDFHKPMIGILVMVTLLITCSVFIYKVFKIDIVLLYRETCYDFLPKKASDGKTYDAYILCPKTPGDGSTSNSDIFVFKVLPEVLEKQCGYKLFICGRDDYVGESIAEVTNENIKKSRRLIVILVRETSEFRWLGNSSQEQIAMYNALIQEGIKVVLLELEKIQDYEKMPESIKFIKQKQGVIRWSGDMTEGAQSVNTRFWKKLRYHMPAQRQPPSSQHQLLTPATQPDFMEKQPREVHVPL

## [dA][dP][dR][dY][dT][dV][dE][dL][dA] [API-101]
[1]
  IC50, IL-1-induced PGE2 synthesis, WI-38 cells: 790 nM
  IC50, effect of IL-1β (10 ng/ml) on proliferation of A549 carcinoma cells, 3H-thymidine: 1000 nM
  percent of IL-1β-induced proliferation of WI-38 human lung fibroblasts abolished: 65%
[2]
  IC50, IL-1-induced PGE2 synthesis, endothelial cells: 220 nM
  IC50, IL-1-induced PGE2 synthesis, microvascular endothelial cells: 1000 nM
  IC50, IL-1β-induced vasodilation of piglet pial vessels (ex vivo): 182 nM

## [dR][dY][dT][dV][dE][dL][dA] [API-101.10]
[1]
  IC50, IL-1-induced PGE2 synthesis, WI-38 cells: 0.2 nM
  percent of IL-1β-induced proliferation of WI-38 human lung fibroblasts abolished: 100%
[2]
  IC50, IL-1-induced PGE2 synthesis, endothelial cells: 1.2 nM
  IC50, IL-1-induced vasodilation (ex vivo vasomotricity, protocol of Example 1): 10.8 nM
  fold potency against API-101, IL-1-induced vasodilation (ex vivo): 100 fold

## [dY][dT][dV][dE][dL][dA] [API-101.11]
[1]
  percent of IL-1β-induced proliferation of WI-38 human lung fibroblasts abolished: 100%

## [dR][dY][dT][dV][dQ][dL][dA] [API-101.103]
[1]
  IC50, IL-1-induced PGE2 synthesis, human WI-38 cells: 0.05 pM

## [dR][dY][dT][dP][dE][dL][dA] [API-101.107]
[3]
  IC50 (FIG. 15; cell type not given): 0.0012 nM
[1]
  IC50, IL-1-induced PGE2 synthesis, human WI-38 cells: 0.1 pM

## [dR][dY][dT][dP][dE][dL] [API-101.113]
[4]
  Emax (%), IL-1β-induced PGE2 synthesis in endothelial cells (porcine): 80%
  IC50, IL-1β-induced PGE2 synthesis in endothelial cells (porcine): 0.0074 nM

## [dK][dY][dT][dP][dE][dL][dA] [API-101.114]
[4]
  Emax (%), IL-1β-induced PGE2 synthesis in endothelial cells (porcine): 50%
  IC50, IL-1β-induced PGE2 synthesis in endothelial cells (porcine): 0.002 nM

## [dOrn][dY][dT][dP][dE][dL][dA] [API-101.115]
[5]
  Emax (%), IL-1β-induced proliferation in TF-1 cells (human): 100%
  IC50, IL-1β-induced proliferation in TF-1 cells (human): ~0.001 nM

## [dR][dW][dT][dP][dE][dL][dA] [API-101.116]
[5]
  Emax (%), IL-1β-induced proliferation in TF-1 cells (human): 75%
  IC50, IL-1β-induced proliferation in TF-1 cells (human): 0.5 nM
[4]
  Emax (%), IL-1β-induced PGE2 synthesis in endothelial cells (porcine): 45%
  IC50, IL-1β-induced PGE2 synthesis in endothelial cells (porcine): 0.013 nM

## [dR][dY][dT][dP][dD][dL][dA] [API-101.117]
[4]
  Emax (%), IL-1β-induced PGE2 synthesis in endothelial cells (porcine): 100%
  IC50, IL-1β-induced PGE2 synthesis in endothelial cells (porcine): 0.01 nM

## [dOrn][dY][dT][dP][dE][dL] [API-101.126]
[6]
  Emax (%), IL-1β-induced TF-1 proliferation: 0%

## [dR][dF][dV][dP][dE][dL][dA] [API-101.127]
[6]
  Emax (%), IL-1β-induced TF-1 proliferation: < 30%

## [dR][dW][dT][dP][dE][dL] [API-101.128]
[6]
  Emax (%), IL-1β-induced TF-1 proliferation: 100%
  IC50, IL-1β-induced TF-1 proliferation: 3 nM

## [dR][dY][dT][dP][dE][dV] [API-101.129]
[6]
  Emax (%), IL-1β-induced TF-1 proliferation: 50%
  IC50, IL-1β-induced TF-1 proliferation: 400 nM

## [dK][dY][dT][dP][dE][dL] [API-101.133]
[6]
  Emax (%), IL-1β-induced TF-1 proliferation: < 10%
